The target of this test is SARS-CoV spike glycoprotein (S) (SARS-CoV) (UniProt P59594). Briefly: SPR.

Drawing on article doi:10.1101/2021.12.20.473401, this text covers Kd for one substance.

Usually Kd stands for a measure of binding affinity in units of concentration. A low value points to a tighter complex.

Turning to VHH-72, the Kd was 6.52 nM.
